Consider 14 molecules from patent US12252531B2, “Methods of screening for high-affinity, isoform-selective TGFβ1 inhibitors” (Scholar Rock, Inc., priority 2018, dated 2025).

For data set [1] the following is noted: in vivo, cited from earlier work.
In data set [2] the test system is LTBP1-proTGFβ1, LTBP3-proTGFβ1, GARP-proTGFβ1 and LRRC33-proTGFβ1 complexes. Nature of the data set: BLI (OCTET), binding profile and bias across the four complexes. The arrangement: species or system human. The note with it: ratio of average KD cell-associated / matrix-associated. The source says: (§1) Column (A) of the table lists monoclonal antibodies with discrete amino acid sequences. […] Columns (B), (D), (E) and (F) provide affinities of each of the listed antibodies, measured in KD. […] Average KD values of (B) and (C) are shown in the corresponding column (D), which collectively represents affinities of the antibodies to ECM- or matrix-associated proTGFβ1 complexes. Similarly, Average KD values of (E) and (F) are shown in the corresponding column (G), which collectively represents affinities of the antibodies to cell-surface or cell-associated proTGFβ1 complexes. Finally, relative ratios between the average KD values from columns (D) and (G) are expressed as “fold bias” in column (H). Thus, the greater the number of column (H) is, the greater bias exists for the particular antibody, when comparing binding preferences of the antibody for matrix-associated complexes and cell-surface complexes. This is one way of quantitatively representing and comparing inherent bias of antibodies to their target complexes. Such analyses may be useful in guiding the selection process for a candidate antibody for particular therapeutic use.
(§2) The concept of “uniformity” or lack of bias is further illustrated in Table 8. Average KD values between the two matrix-associated and cell-associated complexes are calculated, respectively (see columns (D) and (G)). These average KD values can then be used to ask whether bias in binding activities exists between complexes associated with matrix vs. complexes associated with cell surface (e.g., immune cells). Bias may be expressed as “fold-difference”in the average KD values, as illustrated in Table 8.

In data set [3] the test system is Cell-associated proTGFb1 (hGARP, hLRRC33). Nature of the data set: BLI (OCTET), average over cell-associated complexes. Type of data set: binding, human. As to conditions: average KD of (E) and (F), read-out: (G) Cell AVRG.
Text: as §1, §2

For data set [4], the target named is Matrix-associated proTGFb1 (hLTBP1, hLTBP3). Nature of the data set: BLI (OCTET), average over matrix-associated complexes. Type of data set: binding, human. The note with it: average KD of (B) and (C), read-out: (D) ECM AVRG.
Text: as §1, §2

For data set [5], the target named is Matrix-associated proTGFβ1 (hLTBP1, hLTBP3). Nature of the data set: MSD-SET, average over matrix-associated complexes. Type of data set: binding, human. As to conditions: average of (B) and (C), read-out: (D) ECM AVRG.
Text: as §1
(§3) Solution equilibrium titration (“SET”) is an assay whereby binding between two molecules (such as an antigen and an antibody that binds the antigen) can be measured at equilibrium in a solution. For example, Meso-Scale Discovery (“MSD”)-based SET, or MSD-SET, is a useful mode of determining dissociation constants for particularly high-affinity protein-protein interactions at equilibrium (see, for example: Ducata et al. (2015) J Biomolecular Screening 20(10): 1256-1267). The SET-based assays are particularly useful for determining KD values of antibodies with sub-nanomolar (e.g., picomolar) affinities.

Data set [6] has as its system Cell-associated proTGFβ1 (hGARP, hLRRC33). Nature of the data set: MSD-SET, average over cell-associated complexes. Type of data set: binding, human. The note with it: average of (E) and (F), read-out: (G) Cell AVRG.
Text: as §1, §3

Data set [7] concerns hLTBP1-proTGFβ1, hLTBP3-proTGFβ1, hGARP-proTGFβ1 and hLRRC33-proTGFβ1. Nature of the data set: MSD-SET, binding profile and bias across the four human LLCs. The note with it: ratio of average KD cell-associated / matrix-associated.
Text: Solution Equilibrium Titration (SET): The SET is an assay whereby binding between two molecules (such as an antigen and an antibody that binds the antigen) can be measured at equilibrium in a solution. For example, Meso-Scale Discovery (“MSD”)-based SET, or MSD-SET, is a useful mode of determining dissociation constants for particularly high-affinity protein-protein interactions at equilibrium, such as picomolar-affinity antibodies binding to their antigens (see, for example: Ducata et al. (2015) J Biomolecular Screening 20(10): 1256-1267). The SET-based assays are particularly useful for determining KD values of antibodies with sub-nanomolar (e.g., picomolar) affinities.
as §3
For solution equilibrium titration-based binding assays, protein complexes that comprise one of the presenting molecules such as those shown above may be employed as antigen (presenting molecule-TGFβ1 complex, or an LLC). Test antibodies are allowed to form antigen-antibody complex in solution. Antigen-antibody reaction mixtures are incubated to allow an equilibrium to be reached; the amount of the antigen-antibody complex present in the assay reactions can be measured by suitable means well known in the art. As compared to BLI-based assays, SET-based assays are less affected by on/off rates of the antigen-antibody complex, allowing sensitive detection of very high affinity interactions.

Where a chain is given by its changes, count along the chain named.

Regarding “GC1008: human analog of 1D11, pan-TGFβ antibody”, in data set [1] (human), the “Exposure: DN Cmax” value is on record as “DN Cmax~(350 ng/mL)mg”. Besides, the “previously reported adverse events (CTCAE grade)” value in data set [1] was “leukocytosis (grade 3), fatigue (grade 3), hypoxia (grade 3), asystole (grade 5), leukopenia (grade 1), recurrent, transient, tender erythematous, nodular skin lesions, suppurative dermatitis, and herpes zoster”.

B1: Ab21: proTGFβ1 antibody; VH SEQ ID NO: 129, VL SEQ ID NO: 15 (antibody, V domains shown)
VH: EVQLVESGGGLVQPGGSLRLSCAASGFTFSSFSMDWVRQAPGKGLEWVSYISPDASTIYYADSVKGRFTISRDNAKNSLYLQMNSLRAEDTAVYYCARGVLDYGDMLDPWGQGTLVTVSS
VL: DIQMTQSPSSLSASVGDRVTITCQASQDITNYLNWYQQKPGKAPKLLIYDASNLETGVPSRFSGSGSGTDFTFTISSLQPEDIATYYCQQADNHPPWTFGGGTKVEIK
B1: the “(H) G/D (fold bias)” value in data set [2] turned out to be 2.613 fold. Further, the Kd is 0.644 nM in data set [3] and 0.246 nM in data set [4].

B2: Ab24: proTGFβ1 antibody; VH SEQ ID NO: 132, VL SEQ ID NO: 15 (antibody, V domains shown)
VH: B1 VH with G16R, S33A, D35Y
VL: B1 VL
B2: the Kd in data set [5] worked out at 0.023 nM; in data set [6], 0.1 nM; in data set [3] it was 0.537 nM; in data set [4] it was 0.222 nM. The “(H) G/D (fold bias)” value was found to be 4.35 fold in data set [7] and 2.421 fold in data set [2].

B3: Ab30: proTGFβ1 antibody; VH SEQ ID NO: 138, VL SEQ ID NO: 15 (antibody, V domains shown)
VH: B1 VH with V100T
VL: B1 VL
As to B3, the Kd in data set [5] stood at 0.029 nM; in data set [6], 0.081 nM; in data set [3] it was 0.684 nM; in data set [4] it was 0.296 nM. Besides, the results for the “(H) G/D (fold bias)” value in data set [7] and in data set [2] were 2.80 fold and 2.307 fold, respectively.

B4: Ab25: proTGFβ1 antibody; VH SEQ ID NO: 133, VL SEQ ID NO: 15 (antibody, V domains shown)
VH: B1 VH with S30G
VL: B1 VL
As to B4, the “(H) G/D (fold bias)” value in data set [2] is on record as 2.431 fold. The Kd in data set [3] turned out to be 0.449 nM; in data set [4] it was 0.184 nM.

B5: Ab29: proTGFβ1 antibody; VH SEQ ID NO: 137, VL SEQ ID NO: 15 (antibody, V domains shown)
VH: B1 VH with G16R, S33A, D35N, D62G, A97V, G99A
VL: B1 VL
Consider B5, for which the values for the Kd in data set [6], in data set [3] and in data set [4] were 0.024 nM, 0.304 nM and 0.155 nM, respectively. Also, the “(H) G/D (fold bias)” value in data set [7] amounted to 2.00 fold; in data set [2] it was 1.965 fold.

B6: Ab31: proTGFβ1 antibody; VH SEQ ID NO: 139, VL SEQ ID NO: 15 (antibody, V domains shown)
VH: B1 VH with S78T, G99A
VL: B1 VL
For B6, the Kd in data set [5] was found to be 0.017 nM; in data set [6] it was 0.058 nM; in data set [3] it was 0.495 nM; in data set [4], 0.208 nM. Besides, the entries for the “(H) G/D (fold bias)” value in data set [7] and in data set [2] were 3.41 fold and 2.376 fold, respectively.

B7: Ab28: proTGFβ1 antibody; VH SEQ ID NO: 136, VL SEQ ID NO: 15 (antibody, V domains shown)
VH: B1 VH with A97V
VL: B1 VL
Consider B7, for which the “(H) G/D (fold bias)” value in data set [2] is recorded as 1.838 fold. The Kd in data set [3] was found to be 0.603 nM; in data set [4] it was 0.328 nM.

B8: Ab26: proTGFβ1 antibody; VH SEQ ID NO: 134, VL SEQ ID NO: 15 (antibody, V domains shown)
VH: B1 VH with S78T
VL: B1 VL
Regarding B8, the Kd amounted to 0.026 nM in data set [5], 0.072 nM in data set [6], 0.492 nM in data set [3] and 0.197 nM in data set [4]. The “(H) G/D (fold bias)” value in data set [7] is 2.77 fold; in data set [2], 2.500 fold.

B9: Ab23: proTGFβ1 antibody; VH SEQ ID NO: 131, VL SEQ ID NO: 15 (antibody, V domains shown)
VH: B1 VH with D35N, D54S, S56D, S78T
VL: B1 VL
For B9, in data set [2], the “(H) G/D (fold bias)” value is listed as 2.028 fold. The values for the Kd in data set [3] and in data set [4] were 0.897 nM and 0.443 nM, respectively.

B10: Ab33: proTGFβ1 antibody; VH SEQ ID NO: 141, VL SEQ ID NO: 15 (antibody, V domains shown)
VH: B1 VH with D35N, D54S, S56D, S78T, R98H
VL: B1 VL
As to B10, the Kd worked out at 0.009 nM in data set [5], 0.027 nM in data set [6], 0.302 nM in data set [3] and 0.145 nM in data set [4]. The “(H) G/D (fold bias)” value is on record as 3.00 fold in data set [7] and 2.083 fold in data set [2].

B11: Ab22: proTGFβ1 antibody; VH SEQ ID NO: 130, VL SEQ ID NO: 15 (antibody, V domains shown)
VH: B1 VH with S30G, D35N, S52H, P53S
VL: B1 VL
As to B11, the Kd in data set [5] was 0.042 nM; in data set [6], 0.114 nM; in data set [3], 0.695 nM; in data set [4], 0.324 nM. Further, the “(H) G/D (fold bias)” value in data set [7] was 2.71 fold; in data set [2], 2.147 fold.

B12: Ab32: proTGFβ1 antibody; VH SEQ ID NO: 140, VL SEQ ID NO: 15 (antibody, V domains shown)
VH: B1 VH with D35N, D54S, S56D, S78T, L101W, Y103M
VL: B1 VL
With B12, the Kd was found to be 0.032 nM in data set [5], 0.051 nM in data set [6], 0.597 nM in data set [3] and 0.242 nM in data set [4]. In addition, the “(H) G/D (fold bias)” value worked out at 1.60 fold in data set [7] and 2.467 fold in data set [2].

B13: Ab27: proTGFβ1 antibody; VH SEQ ID NO: 135, VL SEQ ID NO: 15 (antibody, V domains shown)
VH: B1 VH with S31F, F32Y, S33A, D35N
VL: B1 VL
On to B13, for which the “(H) G/D (fold bias)” value in data set [2] is on record as 1.738 fold. Also, the values for the Kd in data set [3] and in data set [4] were 0.361 nM and 0.208 nM, respectively.
